Consider 2 proteins from PMC9323360, “Cloning, Expression, Purification, and Characterization of β-Galactosidase from Bifidobacterium longum and Bifidobacterium pseudocatenulatum” (Molecules, 2022).

Substrate in the series: O=[N+]([O-])c1ccccc1O[C@@H]1O[C@H](CO)[C@H](O)[C@H](O)[C@H]1O
Put plainly: purified protein.

B1: BPGLB1 (Bifidobacterium pseudocatenulatum) (protein)
chain: MHRTFKWPELLTDNGKGIAYGGDYNPDQWSEDVWDEDVRLMKQAGVNTVAVAIFSWDRIQPEENRWDFGWLDRIIDKLGKAGIAVDLASATATAPLWLYEKHPEVLPQDKFGHPVNAGSRQSWSPTSPVFKEYALTLCRKLAERYGTNPYVTAWHMGNEYGWNNRYDYSDNALNAFRLWCERKYGTIENLNKAWGTTFWGQEMNGFHEVLIPRFMGADSMVNPGQKLDFERFGNDMLLDFYKAERDAIAEICPDKPFTTNFMVSTDQCCMDYADWAEEVDFVSNDHYFHEGESHIDELFCSDALMDSLALGKPWYVMEHSTSAVQWKPLNARKRKGETVRDSIAHVAMGADAINFFQWRASAFGAESFHSALVPHAGEDTKLFRQVCELGAALKTLGDAGVQGTELEQSDTAILFSAESEWATRSETLPSMKLNHWHDVRDWYRAFLNAGTRADIVPLKYDWNAYKTVVLPTVIMLSAEDTQRLADFAAAGGRVVIGYATGLIDENFHTWLGGYPGAGDGLLREMLGIRGEEFNILGAEAEGEPSEIRLSSGAVTRLWQNDVNVDGERAQVLATYEGEEADEWELDGTAAITRNPYGSGETYFVGCDLNVADLTEFVRENIVEDSANVANPADSDVLHTVRKSADATFDFYLPRGKKEIALQGIEGEPIYLFQAEAEERTGSYTVHRNGVLVVKRA
For B1, under “pH 6.0, 45 °C”, the Km came to 1300 ± 300 µM, the Vmax is recorded as 1.1 ± 0.1 (oNPG), the kcat is 0.5 ± 0.02 s⁻¹ and the kcat/Km was 0.36 (oNPG).

B2: BLGLB1 (Bifidobacterium longum) (protein)
chain: MTTRRTFRWPSLLTESGRGIAFGGDYNPDQWSEETLDEDIRLMVQAGVNTVALAIFSWDKIEPREGEFTFEWLDHVIDKLGAAGIAVDLASATATAPLWLYERHPEVLPIDRYGHVVNAGSRQSWQPTSPVLKEYALRLCRKLAEHYKDNPYVTAWHMGNEYGWNNRYDYSDNALAAFRTWCEAKYGTVDALNEAWGTAFWSQHVNSFDEVLLPRHMGGDSMVNPPQQLDYERFGNDMLLDFYKAERDAIEEICPGKPFTTNFMVSTDQCTMDYAQWANEVDFVSNDHYFHEGESHLDELACSDALMDSLALGKPWYVMEHSTSAVQWKPLNMRKRAGELMRDSLAHVAMGADAINFFQWRQSASGAEAFHSAMVPHAGSDTKLFRGVCELGAALKTLSDAGVQDTELKRADTAILFSAESEWATRSETLPSMKLNHWHDVRDWYRGYLDAGARADVVPLAYDWSGYQTIVLPTVIALSDEDTRRIADFAENGGTVIVGYATGLIDEHFHIGLGGYPGAGNGLLRDMLGIRSEEFNILGEEAEDEPAEIGLSNGLTTRLWQNDVTSVAPDTRVLATYVGTAAADWELDGVPAITSHPHGQGAAIYVGCDLGRHDITHLLKELNTTAPSDERAPDQRPGGGEINAATTTAAAATHDPRILHTIRQSSDGTIRFDFYLNRSKQPVAVNGVEGDPIIAHRCETDAVGYTLNRNAILIAKTSC
Turning to B2, for the setting “pH 5.5, 45 °C”, the Km amounted to 1900 ± 100 µM, the Vmax is listed as 3700 ± 100 (oNPG), the kcat is 1700 ± 40 s⁻¹ and the kcat/Km is listed as 870 (oNPG).

By Km is commonly meant the concentration of substrate that gives half-maximal velocity. In general, kcat refers to the maximal rate divided by the concentration of active sites.
